Source: patent publication US20200270588A1, “GLUCOSYL TRANSFERASE POLYPEPTIDES AND METHODS OF USE” (Syngenta Participations AG, priority 2017, published 2020)
Changes are numbered by the printed parent chain. Numbers in names are those of the source.

B1: A281C: bx9 SEQ ID NO:1 mutant (protein)
chain: MASSRTGAGAGGRVVVFPFPFQGHFNPVMRLARALHARGLAITVFHSGALDPADYPADYRFVPVTVEADPKLLASEDIAAIVTTLNASCDAPFRARLSALLAAEGRDSVRCVFTDVSWNAVLTASSDLGVPALGMMTASAASLRDYMAYRTLIDKGYLPVKEERKEDPVPELPPYLVKDLLRVDTSDLEEFAELLARTVTAARRASGLIFNTFPLIETDTLAEIHKALSVPVFAVAPLNKLVPTATASLHGVVQADRGCLQWLDTQQPGSVLYVSFGSMACMDPHEFVELAWGLADSKRPFVWVVRPNLIRGFESGALPDGVEDEVRGRGIVVAWAPQEEVLAHPAVGGFLTHNGWNSTVEAISEGVPMVCCPRHGDQFGNMRYVCDVWKVGTELVGEQLERGQVKAAIDRLFGTKEGEEIKERMKEFKIAAAKGIGIGVDVDETASPRTDLTDLVDLIKSF
modifications: Zea mays
B2: F210W: bx9 SEQ ID NO:1 mutant (protein)
chain: B1 chain with F210W, C281A
modifications: Zea mays
B3: A202L: bx9 SEQ ID NO:1 mutant (protein)
chain: B1 chain with A202L, C281A
modifications: Zea mays
B4: F210M: bx9 SEQ ID NO:1 mutant (protein)
chain: B1 chain with F210M, C281A
modifications: Zea mays
B5: T220E: bx9 SEQ ID NO:1 mutant (protein)
chain: B1 chain with T220E, C281A
modifications: Zea mays
B6: T220I: bx9 SEQ ID NO:1 mutant (protein)
chain: B1 chain with T220I, C281A
modifications: Zea mays
B7: T220V: bx9 SEQ ID NO:1 mutant (protein)
chain: B1 chain with T220V, C281A
modifications: Zea mays
B8: T220R: bx9 SEQ ID NO:1 mutant (protein)
chain: B1 chain with T220R, C281A
modifications: Zea mays
B9: T220M: bx9 SEQ ID NO:1 mutant (protein)
chain: B1 chain with T220M, C281A
modifications: Zea mays
B10: T220K: bx9 SEQ ID NO:1 mutant (protein)
chain: B1 chain with T220K, C281A
modifications: Zea mays
B11: A202F: bx9 SEQ ID NO:1 mutant (protein)
chain: B1 chain with A202F, C281A
modifications: Zea mays
B12: A281M: bx9 SEQ ID NO:1 mutant (protein)
chain: B1 chain with C281M
modifications: Zea mays
B13: T220Y: bx9 SEQ ID NO:1 mutant (protein)
chain: B1 chain with T220Y, C281A
modifications: Zea mays
B14: A281R: bx9 SEQ ID NO:1 mutant (protein)
chain: B1 chain with C281R
modifications: Zea mays
B15: T220Q: bx9 SEQ ID NO:1 mutant (protein)
chain: B1 chain with T220Q, C281A
modifications: Zea mays
B16: T220A: bx9 SEQ ID NO:1 mutant (protein)
chain: B1 chain with T220A, C281A
modifications: Zea mays
B17: A202V: bx9 SEQ ID NO:1 mutant (protein)
chain: B1 chain with A202V, C281A
modifications: Zea mays
B18: T220C: bx9 SEQ ID NO:1 mutant (protein)
chain: B1 chain with T220C, C281A
modifications: Zea mays
B19: A202M: bx9 SEQ ID NO:1 mutant (protein)
chain: B1 chain with A202M, C281A
modifications: Zea mays
B20: A202C: bx9 SEQ ID NO:1 mutant (protein)
chain: B1 chain with A202C, C281A
modifications: Zea mays
B21: T220G: bx9 SEQ ID NO:1 mutant (protein)
chain: B1 chain with T220G, C281A
modifications: Zea mays
B22: T220L: bx9 SEQ ID NO:1 mutant (protein)
chain: B1 chain with T220L, C281A
modifications: Zea mays
B23: T220S: bx9 SEQ ID NO:1 mutant (protein)
chain: B1 chain with T220S, C281A
modifications: Zea mays
B24: T220D: bx9 SEQ ID NO:1 mutant (protein)
chain: B1 chain with T220D, C281A
modifications: Zea mays
B25: A281Q: bx9 SEQ ID NO:1 mutant (protein)
chain: B1 chain with C281Q
modifications: Zea mays
B26: A281K: bx9 SEQ ID NO:1 mutant (protein)
chain: B1 chain with C281K
modifications: Zea mays
B27: T220N: bx9 SEQ ID NO:1 mutant (protein)
chain: B1 chain with T220N, C281A
modifications: Zea mays

How the values were obtained:
[1] = UDP luminescence plate assay of E. coli extracts, mutants of SEQ ID No: 1, 2 mM metribuzin; type: biochemical, Zea mays; details: for SIGNAL: metribuzin signal of mutant divided by the signal of w/t bx9 / luminescence signal observed with 2 mM metribuzin: 2 mM metribuzin; for SIGNAL: metribuzin signal of mutant divided by the signal of w/t bx9: relative to bx9 w/t; for luminescence signal in the DMSO control: mutants of SEQ ID No: 1, DMSO in place of metribuzin (background UDP-glucose hydrolysis); for luminescence signal observed with 2 mM metribuzin: mutants of SEQ ID No: 1 in E. coli extracts, UDP luminescence
Procedure, shortened: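 Extracts of E. coli BL21 DE3 expressing C-terminally His-tagged SEQ ID NO:1 variants incubated with 2 mM metribuzin; UDP formed read by UDP-Glo luminescence against a UDP standard curve, with optional 95 C stop. Mutants ranked by metribuzin/DMSO signal ratio and signal increase over wild-type bx9.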

[2] = UDP luminescence plate assay of E. coli extracts, saturation mutants of SEQ ID NO: 1, herbicide V; type: biochemical, Zea mays; details: improvement factor relative to w/t bx9 = 1.0, rounded to nearest 0.5; extract activity basis; compound V
Method: Competent BL21 (DE3) cells are transformed as in the foregoing examples and, following seed culturing, grown and autoinduced in plates in a 0.5-1 ml volume of autoinduction medium containing 50 ug/ml kanamycin. Plates are incubated at 37° C. and shaken at 900 rpm. Growth is monitored by taking 20 ul aliquots, diluting 10 fold into flat-bottomed 96 well microtiter plates and reading OD600n at t=0, 1, 2, 2½ and 3 hours if necessary. At a (corrected) OD600 nm˜0.2, plates are transferred to 20° C. and shaken overnight at 900 rpm in a Jencons VWR plate incubator. After ˜18-20 h the final OD600 readings are recorded and the plates centrifuged at 4600 rpm (bench top centrifuge) for 10 min at 4° C. The supernatant is discarded and the pellets then washed with 0.25 ml PBS by repeat centrifugation and removal of supernatant before freezing cell pellets at −80° C. To prepare extracts, plates are allowed to thaw for 30 min and then pellets are resuspended in 0.25 ml of a suitable lysis buffer (for example—50 mM Tris HCL buffer at pH 8.0, 5% glycerol containing 50 mM NaCl and lysonase) mixed, incubated at room temperature for a sufficient time for lysis to be near complete and then centrifuged to remove cell debris and 100 ul of supernatant extract removed to a 96 well V-shaped well plate and stored on ice prior to assay.
Optionally plate assays are stopped with brief heating to 95 C before returning to ice and addition of UDP-Glo detection reagent followed by incubation at lab temperature. […] In addition a UDP standard curve is run alongside each set of plate tests.
Making use of the ELISA assay it is then possible to calculate a specific activity (e.g. in Relative Luminescence Units (RLU)/min/ug bx protein) based upon the amount of each mutant bx9 polypeptide expressed in each well. […] The specific activity of the various test mutant extracts on the same plate are then expressed as a fraction of the specific activity of the w/t bx9 and thus the ‘improvement factor’ versus the w/t expressed as a decimal where, for example, ‘0.5’ means half the specific activity of the wild type and 2.0 means twice the specific activity of the wild type. However, as will be readily apparent to the skilled man, particularly in cases where the UDP assay signal was low (with poor signal to noise versus the background) and/or the ELISA measurement of bx protein also low such a method is prone to generate spurious high specific activity numbers and uncertain numbers.

Row | Molecule | Most Preferred amino acid substitutions and (IF) based on RLU/min/ul [2] | Preferred amino acid substitutions and (IF) based on RLU/min/ul [2] | further results
1 | B1 | C,Q(3.0) |  | SIGNAL: metribuzin signal of mutant divided by the signal of w/t bx9 [1]: 1.58; luminescence signal in the DMSO control [1]: 4.80E+05; luminescence signal observed with 2 mM metribuzin [1]: 4.43E+05
2 | B2 |  | M,W(1.0) | 
3 | B3 |  | T,I,V,L,F(1.5) | 
4 | B4 |  | M,W(1.0) | 
5 | B5 |  | C,A,N,E,L,I,M(1.5) | 
6 | B6 |  | C,A,N,E,L,I,M(1.5) | 
7 | B7 |  | G,Q,D,V(1.0) | 
8 | B8 | S,R(2.5) |  | 
9 | B9 |  | C,A,N,E,L,I,M(1.5) | 
10 | B10 | 3.0 |  | 
11 | B11 |  | T,I,V,L,F(1.5) | 
12 | B12 | 5.0 |  | SIGNAL: metribuzin signal of mutant divided by the signal of w/t bx9 [1]: 2.59; luminescence signal in the DMSO control [1]: 8.45E+05; luminescence signal observed with 2 mM metribuzin [1]: 7.25E+05
13 | B13 | 3.5 |  | 
14 | B14 | 5.0 |  | SIGNAL: metribuzin signal of mutant divided by the signal of w/t bx9 [1]: 3.90; luminescence signal in the DMSO control [1]: 1.30E+06; luminescence signal observed with 2 mM metribuzin [1]: 1.09E+06
15 | B15 |  | G,Q,D,V(1.0) | 
16 | B16 |  | C,A,N,E,L,I,M(1.5) | 
17 | B17 |  | T,I,V,L,F(1.5) | 
18 | B18 |  | C,A,N,E,L,I,M(1.5) | 
19 | B19 |  | S,I,C,M(1.0) | 
20 | B20 |  | S,I,C,M(1.0) | 
21 | B21 |  | G,Q,D,V(1.0) | 
22 | B22 |  | C,A,N,E,L,I,M(1.5) | 
23 | B23 | S,R(2.5) |  | 
24 | B24 |  | G,Q,D,V(1.0) | 
25 | B25 | C,Q(3.0) |  | SIGNAL: metribuzin signal of mutant divided by the signal of w/t bx9 [1]: 2.82; luminescence signal in the DMSO control [1]: 7.59E+05; luminescence signal observed with 2 mM metribuzin [1]: 7.89E+05
26 | B26 | 6.0 |  | SIGNAL: metribuzin signal of mutant divided by the signal of w/t bx9 [1]: 4.98; luminescence signal in the DMSO control [1]: 1.66E+06; luminescence signal observed with 2 mM metribuzin [1]: 1.39E+06
27 | B27 |  | C,A,N,E,L,I,M(1.5) | 
